Results on 50 sequences are retold here after the supplement of paper PMC9112550, “Optimization of the antimicrobial peptide Bac7 by deep mutational scanning” (BMC Biology, 2022).
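Note: peptides expressed intracellularly from a pBAD plasmid library in pooled LB shake-flask culture, induced with 0.3% L-arabinose, DNA abundance read by NGS, three biological replicates, DESeq2 with apeglm shrinkage.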

In this series the test system is Escherichia coli TOP10. Kind of series: shrunken log2 fold change of peptide-encoding DNA abundance (4.5 h post-induction vs induction); higher = less antimicrobial activity (less host growth inhibition). Particulars: time post-induction: 4.5 h; library: site-saturation at positions 5, 18, 19, 20.
With RRIRKRPPRLPRPRPRPCDLPRP, the “shrunken log2 fold change” value worked out at 0.209.

With RRIRCRPPRLPRPRPRPLNYPRP, the “shrunken log2 fold change” value was determined as 0.101.

Consider RRIRLRPPRLPRPRPRPCPPPRP, for which the “shrunken log2 fold change” value amounted to 0.157.

RRIRGRPPRLPRPRPRPHHGPRP: the “shrunken log2 fold change” value was found to be 0.0719.

Regarding RRIRDRPPRLPRPRPRPRTFPRP, the “shrunken log2 fold change” value was -0.0632.

For the sequence RRIRKRPPRLPRPRPRPDDDPRP, the “shrunken log2 fold change” value worked out at 3.89.

RRIRYRPPRLPRPRPRPCMVPRP: the “shrunken log2 fold change” value is -0.251.

Take RRIRDRPPRLPRPRPRPLDHPRP: the “shrunken log2 fold change” value is 0.0841.

With RRIRGRPPRLPRPRPRPGWVPRP, the “shrunken log2 fold change” value came to 0.892.

For the sequence RRIRWRPPRLPRPRPRPIILPRP, the “shrunken log2 fold change” value was -0.283.

In the case of RRIRERPPRLPRPRPRPQNTPRP, the “shrunken log2 fold change” value was -0.497.

Take RRIRCRPPRLPRPRPRPQKFPRP: the “shrunken log2 fold change” value was -0.638.

Consider RRIRCRPPRLPRPRPRPCQNPRP, for which the “shrunken log2 fold change” value was -0.0888.

Take RRIRYRPPRLPRPRPRPANMPRP: the “shrunken log2 fold change” value was -0.683.

RRIRCRPPRLPRPRPRPQQIPRP: the “shrunken log2 fold change” value was -0.168.

With RRIRDRPPRLPRPRPRPGDVPRP, the “shrunken log2 fold change” value was determined as 0.0601.

As to RRIRMRPPRLPRPRPRPFDDPRP, the “shrunken log2 fold change” value is 0.243.

In the case of RRIRSRPPRLPRPRPRPCANPRP, the “shrunken log2 fold change” value is -0.113.

For the sequence RRIRARPPRLPRPRPRPLPAPRP, the “shrunken log2 fold change” value was found to be 1.02.

RRIRQRPPRLPRPRPRPIHVPRP: the “shrunken log2 fold change” value was -0.15.

With RRIRDRPPRLPRPRPRPKTDPRP, the “shrunken log2 fold change” value was -0.314.

RRIRLRPPRLPRPRPRPERCPRP: the “shrunken log2 fold change” value worked out at 0.00413.

RRIRGRPPRLPRPRPRPLTNPRP: the “shrunken log2 fold change” value was 0.364.

Consider RRIRNRPPRLPRPRPRPMYLPRP, for which the “shrunken log2 fold change” value was -0.251.

With RRIRPRPPRLPRPRPRPYETPRP, the “shrunken log2 fold change” value was -0.106.

Consider RRIRTRPPRLPRPRPRPRWSPRP, for which the “shrunken log2 fold change” value amounted to 0.0798.

Take RRIRPRPPRLPRPRPRPRHTPRP: the “shrunken log2 fold change” value is 0.136.

As to RRIRYRPPRLPRPRPRPWSAPRP, the “shrunken log2 fold change” value was -0.237.

For the sequence RRIRIRPPRLPRPRPRPNLKPRP, the “shrunken log2 fold change” value was -0.484.

For the sequence RRIRERPPRLPRPRPRPRHMPRP, the “shrunken log2 fold change” value is -0.0855.

As for RRIRYRPPRLPRPRPRPAFIPRP, the “shrunken log2 fold change” value is -0.24.

With RRIRRRPPRLPRPRPRPEDRPRP, the “shrunken log2 fold change” value was -0.154.

As for RRIRTRPPRLPRPRPRPQDRPRP, the “shrunken log2 fold change” value was -0.0332.

For the sequence RRIRGRPPRLPRPRPRPLIDPRP, the “shrunken log2 fold change” value was found to be 1.36.

Consider RRIRARPPRLPRPRPRPETRPRP, for which the “shrunken log2 fold change” value turned out to be 0.662.

As for RRIRPRPPRLPRPRPRPFHVPRP, the “shrunken log2 fold change” value is -0.428.

Turning to RRIRCRPPRLPRPRPRPYSVPRP, the “shrunken log2 fold change” value was -0.0508.

RRIRSRPPRLPRPRPRPKHRPRP: the “shrunken log2 fold change” value was -0.00685.

RRIRNRPPRLPRPRPRPYKVPRP: the “shrunken log2 fold change” value was -0.324.

For RRIRLRPPRLPRPRPRPGFFPRP, the “shrunken log2 fold change” value amounted to 0.0646.

As to RRIRGRPPRLPRPRPRPGPLPRP, the “shrunken log2 fold change” value worked out at 0.363.

For the sequence RRIRTRPPRLPRPRPRPTKYPRP, the “shrunken log2 fold change” value is -0.612.

With RRIRFRPPRLPRPRPRPLTNPRP, the “shrunken log2 fold change” value came to 0.0389.

As to RRIRQRPPRLPRPRPRPACSPRP, the “shrunken log2 fold change” value came to 0.125.

For the sequence RRIRCRPPRLPRPRPRPAGIPRP, the “shrunken log2 fold change” value was -0.0496.

In the case of RRIRPRPPRLPRPRPRPWWAPRP, the “shrunken log2 fold change” value was determined as 0.00677.

On to RRIRHRPPRLPRPRPRPYLTPRP, for which the “shrunken log2 fold change” value was -0.556.

In the case of RRIRPRPPRLPRPRPRPHEVPRP, the “shrunken log2 fold change” value is -0.0664.

As to RRIRIRPPRLPRPRPRPHHRPRP, the “shrunken log2 fold change” value was -0.46.

On to RRIRNRPPRLPRPRPRPNFEPRP, for which the “shrunken log2 fold change” value was -0.0924.
